Positions count from the first letter of the chain named.
B1: acnA leader WT (T7-acnA-WT) (structured_RNA)
RNA: GGGAUAAUUCACCCUGAAGAGAAUCAGGGCUUCGCAACCCUGUCAUUAAGGAGGAGCUAUGUCGUCAACCCUACGAGAAGCCAGUAAGGACACGUUGCAGGCCAAAGAUAAAACUUACCACUACUACAGCCUGCCGCUUGCUGCUAAAUCACUGGGCG
B2: acnA PBS-III mutant (mut3, AAAGAU to UAACUU) (structured_RNA)
RNA: B1 RNA with A104U, G107C, A108U
B3: acnA PBS-I & PBS-III double mutant (dm-1&3) (structured_RNA)
RNA: B1 RNA with G50C, G51C, G53C, G54C, C63G, A104U, G107C, A108U
B4: acnA PBS-I mutant (mut1, GGAGGA to CCACCA) (structured_RNA)
RNA: B1 RNA with G50C, G51C, G53C, G54C, C63G
B5: evgA leader WT (T7-evgA-WT) (structured_RNA)
RNA: GGGAUAAUUACUUGUCGAAUUAUCUUAAAGGAAGCUCAGAUUUUCUUAUUUUUAUUGAGAAAAUGAGAUGACGCCUUAUGUCUGUAUUACUACAGGGAGAAGGGAGAUGCUUCAUUGCAAAGGGAAUAAUCUAUGAACGCAAUAAUUAUUGAUGACCAUCCUCUUGCUAUCGCAGCAAUUCGUAAUUUAUUGAUCAAAAACGAUAUUGAAAUCUUAGCAGAGUUGACUGAAG
B6: evgA GGA2 mutant (GGA to AGA) (structured_RNA)
RNA: B5 RNA with G96A
B7: evgA no GGAs mutant (structured_RNA)
RNA: B5 RNA with U25G, G30C, C74G, G96A, G103C, G122A, A125G, A126G
B8: evgA GGA4 mutant (AGGGAA to AAGGGG) (structured_RNA)
RNA: B5 RNA with G122A, A125G, A126G
B9: evgA all pred. sites mutant (PBS-I + PBS-II) (structured_RNA)
RNA: B5 RNA with A22U, U25G, G30C, G65A, G70C, G139C, A141U

Legend:
Conditions in all cases: protein: recombinant; chain copies: 2; label: 5'-32P
CsrA [1] = target: T1, CsrA (Escherichia coli, UniProt P69913 1-61); test: EMSA; excess yeast total RNA; 0.5 nM 32P-RNA, 0-300 nM CsrA, 30 min, excess yeast total RNA; 10% native PAGE, 0.5x TBE, 4 C, 170 V; binding buffer, pH and temperature not stated (as in refs)
T1 sequence (P69913 whole entry): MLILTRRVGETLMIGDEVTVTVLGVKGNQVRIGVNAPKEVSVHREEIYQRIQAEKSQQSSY

CsrA [2] = target: T1, CsrA; test: as above; remark: listed apart in the source
CsrA [3] = target: T1, CsrA; test: as above; remark: listed apart in the source
CsrA [4] = target: T1, CsrA; test: EMSA; excess yeast total RNA; reduced curve amplitude; 0.5 nM 32P-RNA, 0-300 nM CsrA, 30 min, excess yeast total RNA; 10% native PAGE, 0.5x TBE, 4 C, 170 V; binding buffer, pH and temperature not stated (as in refs)

Row | Binder | binding signal (CsrA [2]) [fold increase in Kd vs WT] | binding signal (CsrA [3]) [fold increase in Kd vs WT] | other results
1 | B1 | – | – | Kd (CsrA [1]): ~90.9 nM
2 | B2 | ~1.6 | – | –
3 | B3 | ~2 | – | –
4 | B4 | ~1.7 | – | –
5 | B5 | – | – | Kd (CsrA [1]): ~83.7 nM
6 | B6 | – | ~1.6 | –
7 | B7 | – | – | binding signal (CsrA [4]): ~2.8 fold increase in Kd vs WT
8 | B8 | – | ~2 | –
9 | B9 | – | ~1.2 | –

Reference: publication PMC11052181, “The Post-Transcriptional Regulatory Protein CsrA Amplifies Its Targetome through Direct Interactions with Stress-Response Regulatory Hubs: The EvgA and AcnA Cases”
